Assay results from article PMC7268104, “WRKY Transcription Factor OsWRKY29 Represses Seed Dormancy in Rice by Weakening Abscisic Acid Response”.

B1: OsABF1 promoter A1 probe (dsDNA)
DNA 1: AGCGTTAAAGCCATATGTTAAGAACGCGTTGACGAGAAGCTCGAGTTTGAGGTTATGGCC
DNA 2: GGCCATAACCTCAAACTCGAGCTTCTCGTCAACGCGTTCTTAACATATGGCTTTAACGCT
B2: OsVP1 promoter V1 probe (dsDNA)
DNA 1: TCAACCTACCATATCGCTCAAATGATTGTTGACCTGTAACACCCAACGACCTTTATTTAC
DNA 2: GTAAATAAAGGTCGTTGGGTGTTACAGGTCAACAATCATTTGAGCGATATGGTAGGTTGA
B3: OsVP1 promoter V3 probe (dsDNA)
DNA 1: CGGTCAAAACCAGCACGCGCCGAAATCCCGTACTTCCCACTGACACGTAGGCCCCACTGTCATTGACCG
DNA 2: CGGTCAATGACAGTGGGGCCTACGTGTCAGTGGGAAGTACGGGATTTCGGCGCGTGCTGGTTTTGACCG

Target: OsWRKY29-MBP (Oryza sativa (rice; cv. Hwayoung?), UniProt Q6IEQ2 1-288)
Experiment: EMSA; unlabeled probe competes dose-dependently; LightShift Chemiluminescent EMSA kit binding buffer, 1 ug protein in 20 ul, room temperature, 30 min; 6.5% native PAGE, 0.5x TBE; salt and pH not stated
Conditions: protein: recombinant; tags: MBP (pMAL-c2x fusion); blunt

OsWRKY29-MBP, sequence (Q6IEQ2 entry or part of it): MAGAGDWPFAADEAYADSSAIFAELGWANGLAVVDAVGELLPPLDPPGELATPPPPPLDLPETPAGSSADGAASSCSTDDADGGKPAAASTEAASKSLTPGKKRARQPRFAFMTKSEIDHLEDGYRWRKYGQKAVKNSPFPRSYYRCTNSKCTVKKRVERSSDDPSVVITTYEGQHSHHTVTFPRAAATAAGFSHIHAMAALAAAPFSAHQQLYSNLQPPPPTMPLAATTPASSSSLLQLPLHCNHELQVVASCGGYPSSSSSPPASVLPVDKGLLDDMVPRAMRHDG

Binder	binding result
B1	binds
B2	binds
B3	binds
